B1: Variant 13: P450-BM3 variant of SEQ ID NO: 12: K32R; C48S; Y52F; I95P; G115R; D232H; M491A; N574T; T577A; E619D; A627S; D722S (protein)
chain: MTIKEMPQPKTFGELKNLPLLNTDKPVQALMRIADELGEIFKFEAPGSVTRFLSSQRLIKEACDESRFDKNLSQALKFSRDFAGDGLFTSWTHEPNWKKAHNILLPSFSQQAMKRYHAMMVDIAVQLVQKWERLNADEHIEVSEDMTRLTLDTIGLCGFNYRFNSFYRDQPHPFIISMVRALDEVMNKLQRANPDDPAYDENKRQCQEDIKVMNDLVDKIIADRKARGEQSHDLLTQMLNGKDPETGEPLDDGNISYQIITFLIAGHETTSGLLSFALYFLVKNPHVLQKVAEEAARVLVDPVPSYKQVKQLKYVGMVLNEALRLWPTAPAFSLYAKEDTVLGGEYPLEKGDEVMVLIPQLHRDKTIWGDDVEEFRPERFENPSAIPQHAFKPFGNGQRACIGQQFALHEATLVLGMMLKHFDFEDHTNYELDIKETLTLKPEGFVVKAKSKKIPLGGIPSPSTEQSAKKVRKKAENAHNTPLLVLYGSNAGTAEGTARDLADIAMSKGFAPQVATLDSHAGNLPREGAVLIVTASYNGHPPDNAKQFVDWLDQASADEVKGVRYSVFGCGDKTWAATYQKVPAFIDETLAAKGAENIADRGEADASDDFEGTYEEWRDHMWSDVASYFNLDIENSEDNKSTLSLQFVDSAADMPLAKMHGAFSTNVVASKELQQPGSARSTRHLEIELPKEASYQEGDHLGVIPRNYEGIVNRVTARFGLSASQQIRLEAEEEKLAHLPLAKTVSVEELLQYVELQDPVTRTQLRAMAAKTVCPPHKVELEALLEKQAYKEQVLAKRLTMLELLEKYPACEMKFSEFIALLPSIRPRYYSISSSPRVDEKQASITVSVVSGEAWSGYGEYKGIASNYLAELQEGDTITCFISTPQSEFTLPKDPETPLIMVGPGTGVAPFRGFVQARKQLKEQGQSLGEAHLYFGCRSPHEDYLYQEELENAQSEGIITLHTAFSRMPNQPKTYVQHVMEQDGKKLIELLDQGAHFYICGDGSQMAPAVEATLMKSYADVHQVSEADARLWLQQLEEKGRYAKDVWAG
modifications: P450_BM3
notes: C48S; Y52F; I95P; G115R; D232H; M491A; N574T; T577A; E619D; A627S; D722S
B2: SEQ ID NO: 14: P450-BM3 parental backbone from the commercially available MCYP panel (MCYP-0343; Codexis) (protein)
chain: MTIKEMPQPKTFGELKNLPLLNTDKPVQALMKIADELGEIFKFEAPGLVTRYLSSQRLIKEACDESRFDKNLSQALKFARDFAGDGLFTSWTHEKNWKKAHNILLPSFSQQAMKGYHAMMVDIAVQLVQKWERLNADEHIEVPEDMTRLTLDTIGLCGFNYRFNSFYRDQPHPFITSMVRALDEAMNKQQRANPDDPAYDENKRQFQEDIKVMNDLVDKIIADRKASGEQSDDLLTHMLNGKDPETGEPLDDENIRYQIITFLIAGHETTSGLLSFALYFLVKNPHVLQKAAEEAARVLVDPVPSYKQVKQLKYVGMVLNEALRLWPTAPAFSLYAKEDTVLGGEYPLEKGDELMVLIPQLHRDKTIWGDDVEEFRPERFENPSAIPQHAFKPFGNGQRACIGQQFALHEATLVLGMMLKHFDFEDHTNYELDIKETLTLKPEGFVVKAKSKKIPLGGIPSPSTEQSAKKVRKKAENAHNTPLLVLYGSNMGTAEGTARDLADIAMSKGFAPQVATLDSHAGNLPREGAVLIVTASYNGHPPDNAKQFVDWLDQASADEVKGVRYSVFGCGDKNWATTYQKVPAFIDETLAAKGAENIADRGEADASDDFEGTYEEWREHMWSDVAAYFNLDIENSEDNKSTLSLQFVDSAADMPLAKMHGAFSTNVVASKELQQPGSARSTRHLEIELPKEASYQEGDHLGVIPRNYEGIVNRVTARFGLDASQQIRLEAEEEKLAHLPLAKTVSVEELLQYVELQDPVTRTQLRAMAAKTVCPPHKVELEALLEKQAYKEQVLAKRLTMLELLEKYPACEMKFSEFIALLPSIRPRYYSISSSPRVDEKQASITVSVVSGEAWSGYGEYKGIASNYLAELQEGDTITCFISTPQSEFTLPKDPETPLIMVGPGTGVAPFRGFVQARKQLKEQGQSLGEAHLYFGCRSPHEDYLYQEELENAQSEGIITLHTAFSRMPNQPKTYVQHVMEQDGKKLIELLDQGAHFYICGDGSQMAPAVEATLMKSYADVHQVSEADARLWLQQLEEKGRYAKDVWAG
modifications: P450_BM3
B3: Variant 1: P450-BM3 variant of SEQ ID NO: 14: Y52F; K95P; G115R; T176V; L216Y; D232H; E349T; M491A; T577A; E619D (protein)
chain: MTIKEMPQPKTFGELKNLPLLNTDKPVQALMKIADELGEIFKFEAPGLVTRFLSSQRLIKEACDESRFDKNLSQALKFARDFAGDGLFTSWTHEPNWKKAHNILLPSFSQQAMKRYHAMMVDIAVQLVQKWERLNADEHIEVPEDMTRLTLDTIGLCGFNYRFNSFYRDQPHPFIVSMVRALDEAMNKQQRANPDDPAYDENKRQFQEDIKVMNDYVDKIIADRKASGEQSHDLLTHMLNGKDPETGEPLDDENIRYQIITFLIAGHETTSGLLSFALYFLVKNPHVLQKAAEEAARVLVDPVPSYKQVKQLKYVGMVLNEALRLWPTAPAFSLYAKEDTVLGGEYPLTKGDELMVLIPQLHRDKTIWGDDVEEFRPERFENPSAIPQHAFKPFGNGQRACIGQQFALHEATLVLGMMLKHFDFEDHTNYELDIKETLTLKPEGFVVKAKSKKIPLGGIPSPSTEQSAKKVRKKAENAHNTPLLVLYGSNAGTAEGTARDLADIAMSKGFAPQVATLDSHAGNLPREGAVLIVTASYNGHPPDNAKQFVDWLDQASADEVKGVRYSVFGCGDKNWAATYQKVPAFIDETLAAKGAENIADRGEADASDDFEGTYEEWRDHMWSDVAAYFNLDIENSEDNKSTLSLQFVDSAADMPLAKMHGAFSTNVVASKELQQPGSARSTRHLEIELPKEASYQEGDHLGVIPRNYEGIVNRVTARFGLDASQQIRLEAEEEKLAHLPLAKTVSVEELLQYVELQDPVTRTQLRAMAAKTVCPPHKVELEALLEKQAYKEQVLAKRLTMLELLEKYPACEMKFSEFIALLPSIRPRYYSISSSPRVDEKQASITVSVVSGEAWSGYGEYKGIASNYLAELQEGDTITCFISTPQSEFTLPKDPETPLIMVGPGTGVAPFRGFVQARKQLKEQGQSLGEAHLYFGCRSPHEDYLYQEELENAQSEGIITLHTAFSRMPNQPKTYVQHVMEQDGKKLIELLDQGAHFYICGDGSQMAPAVEATLMKSYADVHQVSEADARLWLQQLEEKGRYAKDVWAG
modifications: P450_BM3
notes: K95P; G115R; T176V; L216Y; D232H; E349T; M491A; T577A; E619D
B4: Variant 2: P450-BM3 variant of SEQ ID NO: 14: Y52F; G115R; T176V; L216Y; D232H; P347T; E349T; T577A; D722S (protein)
chain: MTIKEMPQPKTFGELKNLPLLNTDKPVQALMKIADELGEIFKFEAPGLVTRFLSSQRLIKEACDESRFDKNLSQALKFARDFAGDGLFTSWTHEKNWKKAHNILLPSFSQQAMKRYHAMMVDIAVQLVQKWERLNADEHIEVPEDMTRLTLDTIGLCGFNYRFNSFYRDQPHPFIVSMVRALDEAMNKQQRANPDDPAYDENKRQFQEDIKVMNDYVDKIIADRKASGEQSHDLLTHMLNGKDPETGEPLDDENIRYQIITFLIAGHETTSGLLSFALYFLVKNPHVLQKAAEEAARVLVDPVPSYKQVKQLKYVGMVLNEALRLWPTAPAFSLYAKEDTVLGGEYTLTKGDELMVLIPQLHRDKTIWGDDVEEFRPERFENPSAIPQHAFKPFGNGQRACIGQQFALHEATLVLGMMLKHFDFEDHTNYELDIKETLTLKPEGFVVKAKSKKIPLGGIPSPSTEQSAKKVRKKAENAHNTPLLVLYGSNMGTAEGTARDLADIAMSKGFAPQVATLDSHAGNLPREGAVLIVTASYNGHPPDNAKQFVDWLDQASADEVKGVRYSVFGCGDKNWAATYQKVPAFIDETLAAKGAENIADRGEADASDDFEGTYEEWREHMWSDVAAYFNLDIENSEDNKSTLSLQFVDSAADMPLAKMHGAFSTNVVASKELQQPGSARSTRHLEIELPKEASYQEGDHLGVIPRNYEGIVNRVTARFGLSASQQIRLEAEEEKLAHLPLAKTVSVEELLQYVELQDPVTRTQLRAMAAKTVCPPHKVELEALLEKQAYKEQVLAKRLTMLELLEKYPACEMKFSEFIALLPSIRPRYYSISSSPRVDEKQASITVSVVSGEAWSGYGEYKGIASNYLAELQEGDTITCFISTPQSEFTLPKDPETPLIMVGPGTGVAPFRGFVQARKQLKEQGQSLGEAHLYFGCRSPHEDYLYQEELENAQSEGIITLHTAFSRMPNQPKTYVQHVMEQDGKKLIELLDQGAHFYICGDGSQMAPAVEATLMKSYADVHQVSEADARLWLQQLEEKGRYAKDVWAG
modifications: P450_BM3
notes: G115R; T176V; L216Y; D232H; P347T; E349T; T577A; D722S

Tests used:
Assay type in all cases: biochemical
[1] = Validation of generalist properties: oxidation of diclofenac by lyophilized P450-BM3 variant, UPLC-MS; conditions: [Diclofenac] = 1 mM; for TON: TON = [substrate]*% conversion/[P450]; for FIOPC (F02): fold improvement over parent MCYP-P1.2-F02
In short: (§1)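 Lyophilized lysate of E. coli-expressed P450-BM3 variant (stock standardized to 12 μM heme) was incubated 24 h at 30 °C with 1 or 2 mM substrate, 1.0 mM NADP+, 25 mM glucose, 0.5 mg/mL glucose dehydrogenase and 5% DMSO in 100 mM potassium phosphate. Acetonitrile-quenched samples were analyzed by UPLC-MS (positive ESI).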

[2] = Validation of generalist properties: oxidation of loratadine by lyophilized P450-BM3 variant, UPLC-MS; conditions: [Loratadine] = 1 mM; for TON: TON = [substrate]*% conversion/[P450]; for FIOPC (F02): fold improvement over parent MCYP-P1.2-F02
In short: as §1

[3] = Validation of generalist properties: oxidation of imatinib by lyophilized P450-BM3 variant, UPLC-MS; conditions: [Imatinib] = 1 mM; for TON: TON = [substrate]*% conversion/[P450]; for FIOPC (F02): fold improvement over parent MCYP-P1.2-F02
In short: as §1

[4] = Validation of generalist properties: oxidation of gefitinib by lyophilized P450-BM3 variant, UPLC-MS; conditions: [Gefitinib] = 1 mM; for TON: TON = [substrate]*% conversion/[P450]; for FIOPC (F02): fold improvement over parent MCYP-P1.2-F02
In short: as §1

[5] = fold improvement over parent MCYP-P1.2-D06

Molecule	% Conv. [1]	TON [1]	FIOPC (D06) [1, 5]	% Conv. [2]	TON [2]	FIOPC (D06) [2, 5]	% Conv. [3]	TON [3]	FIOPC (D06) [3, 5]	% Conv. [4]	TON [4]	FIOPC (D06) [4, 5]	FIOPC (F02) [1]	FIOPC (F02) [2]	FIOPC (F02) [3]	FIOPC (F02) [4]
B1	++++ (15.01-20.00)	‡‡‡ (5001-10000)	*** (5.01-10.0)	+ (0-5.00)	‡‡ (1001-5000)	* (0.0-3.0)	++++ (15.01-20.00)	‡‡‡‡ (10000-50000)	*** (5.01-10.0)	+ (0-5.00)	‡‡ (1001-5000)	**** (10.01-15.00)	–	–	–	–
B2	+ (0-5.00)	‡ (0-1000)	–	+ (0-5.00)	‡‡ (1001-5000)	–	+ (0-5.00)	‡‡ (1001-5000)	–	+ (0-5.00)	‡ (0-1000)	–	–	–	–	–
B3	+ (0-5.00)	‡‡ (1001-5000)	–	+ (0-5.00)	‡‡ (1001-5000)	–	++++ (15.01-20.00)	‡‡‡‡ (10000-50000)	–	+ (0-5.00)	‡ (0-1000)	–	**** (10.01-15.00)	* (0.0-3.0)	**** (10.01-15.00)	* (0.0-3.0)
B4	+ (0-5.00)	‡‡ (1001-5000)	–	+ (0-5.00)	‡‡ (1001-5000)	–	++++ (15.01-20.00)	‡‡‡‡ (10000-50000)	–	+ (0-5.00)	‡ (0-1000)	–	**** (10.01-15.00)	* (0.0-3.0)	**** (10.01-15.00)	* (0.0-3.0)
